Source: patent publication US20260209376A1 (University of California, published 2026)

B1: H6L7 (antibody, human IgG1, V domains shown)
VH: EVQLVQSGAEVKKPGESLKISCKGSGYSFTGYTMNWVRQMPGKGLEWMGRINPHNGGTDYNQKFKDQVTISADKSISTAYLQWSSLKASDTAMYYCARGYYYYSLDYWGQGTLVTVSS
VL: EIVLTQSPATLSLSPGERATLSCSASSSIRYIHWYQQKPGQAPRRWIYDTSNLASGTPARFSGSGSGTSYSLTISSLEPEDFAVYYCHQRNSYPWTFGQGTKVEIK
notes: humanized; also called hu128.1
B2: H8L7 (antibody, human IgG1, V domains shown)
VH: QVQLVESGGGVVQPGRSLRLSCAASGYSFTGYTMNWVRQAPGNGLEWVARINPHNGGTDYNQKFKDRFTISRDNSKNTLYLQMNSLRAEDTAVYYCARGYYYYSLDYWGQGTTVTVSS
VL: EIVLTQSPATLSLSPGERATLSCSASSSIRYIHWYQQKPGQAPRRWIYDTSNLASGTPARFSGSGSGTSYSLTISSLEPEDFAVYYCHQRNSYPWTFGQGTKVEIK
notes: as for B1
B3: H6L8 (antibody, human IgG1, V domains shown)
VH: EVQLVQSGAEVKKPGESLKISCKGSGYSFTGYTMNWVRQMPGKGLEWMGRINPHNGGTDYNQKFKDQVTISADKSISTAYLQWSSLKASDTAMYYCARGYYYYSLDYWGQGTLVTVSS
VL: EIVLTQSPDFQSVTPKEKVTITCSASSSIRYIHWYQQRPDQSPKRWIYDTSNLASGVPSRFSGSGSGTSYSLTINSLEAEDAATYYCHQRNSYPWTFGQGTKVEIK
notes: as for B1
B4: H8L9 (antibody, human IgG1, V domains shown)
VH: QVQLVESGGGVVQPGRSLRLSCAASGYSFTGYTMNWVRQAPGNGLEWVARINPHNGGTDYNQKFKDRFTISRDNSKNTLYLQMNSLRAEDTAVYYCARGYYYYSLDYWGQGTTVTVSS
VL: EIVLTQSPATLSLSPGERATLSCSASSSIRYIHWYQQKPGQAPRRWIYDTSNLASGTPARFSGSGSGTDFTLTISSLEPEDFAVYYCHQRNSYPWTFGQGTKVEIK
notes: as for B1
B5: H6L12 (antibody, human IgG1, V domains shown)
VH: EVQLVQSGAEVKKPGESLKISCKGSGYSFTGYTMNWVRQMPGKGLEWMGRINPHNGGTDYNQKFKDQVTISADKSISTAYLQWSSLKASDTAMYYCARGYYYYSLDYWGQGTLVTVSS
VL: EIVLTQSPDFQSVTPKEKVTITCSASSSIRYIHWYQQRPDQSPKLLIYDTSNLASGVPSRFSGSGSGTSYSLTINSLEAEDAATYYCHQRNSYPWTFGQGTKVEIK
notes: as for B1
B6: H8L5 (antibody, human IgG1, V domains shown)
VH: QVQLVESGGGVVQPGRSLRLSCAASGYSFTGYTMNWVRQAPGNGLEWVARINPHNGGTDYNQKFKDRFTISRDNSKNTLYLQMNSLRAEDTAVYYCARGYYYYSLDYWGQGTTVTVSS
VL: EIVLTQSPATLSLSPGERATLSCSASSSIRYIHWYQQKPGQAPRRWIYDTSNLASGTPARFSGSGSGTSYSLTISSLEPEDFAVYYCQQRNSYPWTFGQGTKVEIK
notes: as for B1
B7: H6L5 (antibody, human IgG1, V domains shown)
VH: EVQLVQSGAEVKKPGESLKISCKGSGYSFTGYTMNWVRQMPGKGLEWMGRINPHNGGTDYNQKFKDQVTISADKSISTAYLQWSSLKASDTAMYYCARGYYYYSLDYWGQGTLVTVSS
VL: EIVLTQSPATLSLSPGERATLSCSASSSIRYIHWYQQKPGQAPRRWIYDTSNLASGTPARFSGSGSGTSYSLTISSLEPEDFAVYYCQQRNSYPWTFGQGTKVEIK
notes: as for B1
B8: H6L10 (antibody, human IgG1, V domains shown)
VH: EVQLVQSGAEVKKPGESLKISCKGSGYSFTGYTMNWVRQMPGKGLEWMGRINPHNGGTDYNQKFKDQVTISADKSISTAYLQWSSLKASDTAMYYCARGYYYYSLDYWGQGTLVTVSS
VL: EIVLTQSPDFQSVTPKEKVTITCSASSSIRYIHWYQQRPDQSPKRWIYDTSNLASGVPSRFSGSGSGTDFTLTINSLEAEDAATYYCHQRNSYPWTFGQGTKVEIK
notes: as for B1
B9: H6L6 (antibody, human IgG1, V domains shown)
VH: EVQLVQSGAEVKKPGESLKISCKGSGYSFTGYTMNWVRQMPGKGLEWMGRINPHNGGTDYNQKFKDQVTISADKSISTAYLQWSSLKASDTAMYYCARGYYYYSLDYWGQGTLVTVSS
VL: EIVLTQSPDFQSVTPKEKVTITCSASSSIRYIHWYQQRPDQSPKRWIYDTSNLASGVPSRFSGSGSGTSYSLTINSLEAEDAATYYCQQRNSYPWTFGQGTKVEIK
notes: as for B1
B10: H6L11 (antibody, human IgG1, V domains shown)
VH: EVQLVQSGAEVKKPGESLKISCKGSGYSFTGYTMNWVRQMPGKGLEWMGRINPHNGGTDYNQKFKDQVTISADKSISTAYLQWSSLKASDTAMYYCARGYYYYSLDYWGQGTLVTVSS
VL: EIVLTQSPATLSLSPGERATLSCSASSSIRYIHWYQQKPGQAPRLLIYDTSNLASGTPARFSGSGSGTSYSLTISSLEPEDFAVYYCHQRNSYPWTFGQGTKVEIK
notes: as for B1
B11: H6L9 (antibody, human IgG1, V domains shown)
VH: EVQLVQSGAEVKKPGESLKISCKGSGYSFTGYTMNWVRQMPGKGLEWMGRINPHNGGTDYNQKFKDQVTISADKSISTAYLQWSSLKASDTAMYYCARGYYYYSLDYWGQGTLVTVSS
VL: EIVLTQSPATLSLSPGERATLSCSASSSIRYIHWYQQKPGQAPRRWIYDTSNLASGTPARFSGSGSGTDFTLTISSLEPEDFAVYYCHQRNSYPWTFGQGTKVEIK
notes: as for B1
B12: H8L8 (antibody, human IgG1, V domains shown)
VH: QVQLVESGGGVVQPGRSLRLSCAASGYSFTGYTMNWVRQAPGNGLEWVARINPHNGGTDYNQKFKDRFTISRDNSKNTLYLQMNSLRAEDTAVYYCARGYYYYSLDYWGQGTTVTVSS
VL: EIVLTQSPDFQSVTPKEKVTITCSASSSIRYIHWYQQRPDQSPKRWIYDTSNLASGVPSRFSGSGSGTSYSLTINSLEAEDAATYYCHQRNSYPWTFGQGTKVEIK
notes: as for B1
B13: H8L10 (antibody, human IgG1, V domains shown)
VH: QVQLVESGGGVVQPGRSLRLSCAASGYSFTGYTMNWVRQAPGNGLEWVARINPHNGGTDYNQKFKDRFTISRDNSKNTLYLQMNSLRAEDTAVYYCARGYYYYSLDYWGQGTTVTVSS
VL: EIVLTQSPDFQSVTPKEKVTITCSASSSIRYIHWYQQRPDQSPKRWIYDTSNLASGVPSRFSGSGSGTDFTLTINSLEAEDAATYYCHQRNSYPWTFGQGTKVEIK
notes: as for B1
B14: H8L6 (antibody, human IgG1, V domains shown)
VH: QVQLVESGGGVVQPGRSLRLSCAASGYSFTGYTMNWVRQAPGNGLEWVARINPHNGGTDYNQKFKDRFTISRDNSKNTLYLQMNSLRAEDTAVYYCARGYYYYSLDYWGQGTTVTVSS
VL: EIVLTQSPDFQSVTPKEKVTITCSASSSIRYIHWYQQRPDQSPKRWIYDTSNLASGVPSRFSGSGSGTSYSLTINSLEAEDAATYYCQQRNSYPWTFGQGTKVEIK
notes: as for B1
B15: ch128.1 (antibody, human IgG1, V domains shown)
VH: EVQLQQSGPELVKPGASMKISCKASGYSFTGYTMNWVKQSHGENLEWIGRINPHNGGTDYNQKFKDKAPLTVDKSSNTAYMELLSLTSGDSAVYYCARGYYYYSLDYWGQGTSVTVSS
VL: QIVLTQSPAIMSVSPGEKVTMTCSASSSIRYIHWYQQRPGTSPKRWIYDTSNLASGVPARFSGSGSGTSYSLTISSMEAEDAATYYCHQRNSYPWTFGGGTRLEIR
notes: mouse 128.1 V regions; also called chimeric antibody; parental chimeric antibody

Experiments:
[1] = biological target: T1, soluble human TfR1 (sCD71) (human, UniProt P02786 89-760); experiment: ELISA, plate coated with soluble human TfR1 (Kerafast), 2-fold antibody dilutions, AP anti-human kappa detection, A405
T1 construct: extracellular domain; Two sources (Cal Tech, Kerafast) are kept as one molecule; also called Human sCD71; transferrin receptor 1
Procedure: (§1) Immulon-H2B plates (Thermo Fisher Scientific, Inc.) were coated overnight at 4° C. with soluble 5 μg/mL TfR1 (sCD71) in 50 mM carbonate/bicarbonate buffer, pH 9.3. Human sCD71 was obtained from either Cal Tech (California Institute of Technology, Pasadena, CA, USA) or Kerafast, Inc., while cynomolgus monkey (Macaca fascicularis) sCD71 was purchased from Sino Biological, Inc. (Wayne, PA, USA). Plates were washed with PBS and blocked with 3% BSA in PBS. Serial 2-fold dilutions of antibodies (200-3.12 ng/mL) were added to the plate in duplicates and incubated overnight at 4° C. Binding was detected with an AP-conjugated goat anti-human κ antibody (MilliporeSigma) and AP substrate, p-nitrophenyl phosphate disodium (MilliporeSigma), dissolved in diethanolamine buffer (9.6% diethanolamine (v/v), 0.24 mM MgCl₂ in water, pH 9.8). Plates were read at absorbance 405 nm using a FilterMax F5 multi-mode microplate reader (Molecular Devices, Sunnyvale, CA, USA).

[2] = biological target: T2, human TfR1 on the cell surface (KMS-11 or MM.1S human MM cells) (human, UniProt P02786 1-760); experiment: flow cytometry on MM.1S cells, 2 ug antibody, PE anti-human kappa detection
T2 construct: whole, on cells; also called human cells expressing the TfR1; CD71
Procedure: (§2) KMS-11 cells (Namba et al., In Vitro Cell. Dev. Biol. 25(8):723-729 (1989)), a kind gift from Dr. Lawrence Boise (Emory University, Atlanta, GA, USA), and MM.1S cells (Greenstein et al., Exp. Hematol., 31(4):271-282 (2003)), purchased from the American Type Culture Collection (ATCC, Manassas, VA, USA; ATCC® CRL-2974T”) human MM cells were incubated with 2 μg of humanized antibodies or the control antibodies (ch128.1 as a positive control or a negative isotype control IgG1) for 2 hours on ice. Binding was detected using a PE-conjugated anti-human κ antibody. Samples were analyzed on an LSRII analytical flow cytometer (BD Biosciences, San Jose, CA, USA) and 10,000 events were collected. Histograms were created using the […] Version 3 (De Novo Software, Glendale, CA, USA).

[3] = biological target: T3, cynomolgus monkey (Macaca fascicularis) soluble TfR1 (sCD71) (cynomolgus monkey (Macaca fascicularis), UniProt H9EXL1 89-760 (rhesus entry)); experiment: ELISA, plate coated with soluble cynomolgus monkey TfR1 (Sino Biological), 2-fold antibody dilutions, AP anti-human kappa detection, A405
T3 construct: extracellular domain; also called cynomolgus monkey TfR1; cynomolgus monkey sCD71
Procedure: as §1

[4] = biological target: T1, soluble human TfR1 (sCD71); experiment: ELISA, soluble human TfR1; semi-quantitative grade
[5] = biological target: T2, human TfR1 on the cell surface (KMS-11 …); experiment: flow cytometry on KMS-11 cells; semi-quantitative grade
Procedure: as §2

T3 sequence (chain, as listed by the source): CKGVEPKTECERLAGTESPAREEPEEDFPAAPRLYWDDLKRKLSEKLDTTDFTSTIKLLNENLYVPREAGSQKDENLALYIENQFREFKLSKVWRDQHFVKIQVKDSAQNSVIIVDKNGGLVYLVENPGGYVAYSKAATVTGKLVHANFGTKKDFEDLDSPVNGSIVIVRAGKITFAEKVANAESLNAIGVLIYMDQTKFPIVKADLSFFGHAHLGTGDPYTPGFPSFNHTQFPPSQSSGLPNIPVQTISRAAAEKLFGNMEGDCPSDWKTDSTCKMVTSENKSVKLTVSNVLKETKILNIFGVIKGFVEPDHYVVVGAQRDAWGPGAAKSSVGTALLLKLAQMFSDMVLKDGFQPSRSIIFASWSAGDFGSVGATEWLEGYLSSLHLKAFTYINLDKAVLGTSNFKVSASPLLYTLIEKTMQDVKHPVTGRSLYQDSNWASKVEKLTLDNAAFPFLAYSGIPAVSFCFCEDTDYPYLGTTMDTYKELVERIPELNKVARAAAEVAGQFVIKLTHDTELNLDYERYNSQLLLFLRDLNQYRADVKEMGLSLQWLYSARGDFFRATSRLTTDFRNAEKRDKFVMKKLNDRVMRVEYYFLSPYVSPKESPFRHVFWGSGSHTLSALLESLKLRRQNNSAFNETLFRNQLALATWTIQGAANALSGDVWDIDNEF
T1 sequence (P02786 89-760): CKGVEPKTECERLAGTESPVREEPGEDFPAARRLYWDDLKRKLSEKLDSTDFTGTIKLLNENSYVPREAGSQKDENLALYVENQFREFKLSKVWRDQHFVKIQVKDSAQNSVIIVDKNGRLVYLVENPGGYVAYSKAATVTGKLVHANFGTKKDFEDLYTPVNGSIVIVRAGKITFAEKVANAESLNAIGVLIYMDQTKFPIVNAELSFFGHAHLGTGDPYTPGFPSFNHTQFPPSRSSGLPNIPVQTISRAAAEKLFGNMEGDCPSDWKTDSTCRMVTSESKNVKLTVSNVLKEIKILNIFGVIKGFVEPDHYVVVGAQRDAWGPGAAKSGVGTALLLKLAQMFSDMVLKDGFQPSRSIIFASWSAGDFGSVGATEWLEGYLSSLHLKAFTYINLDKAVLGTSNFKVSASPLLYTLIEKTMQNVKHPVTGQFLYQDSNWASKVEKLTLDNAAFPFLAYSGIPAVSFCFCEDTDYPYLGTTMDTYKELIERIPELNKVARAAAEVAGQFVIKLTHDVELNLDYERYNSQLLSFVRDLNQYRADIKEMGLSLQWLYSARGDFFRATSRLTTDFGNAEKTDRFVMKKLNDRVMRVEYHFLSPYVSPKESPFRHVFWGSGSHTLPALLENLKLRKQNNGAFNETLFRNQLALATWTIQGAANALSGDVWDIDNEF
T2 sequence (P02786 whole entry): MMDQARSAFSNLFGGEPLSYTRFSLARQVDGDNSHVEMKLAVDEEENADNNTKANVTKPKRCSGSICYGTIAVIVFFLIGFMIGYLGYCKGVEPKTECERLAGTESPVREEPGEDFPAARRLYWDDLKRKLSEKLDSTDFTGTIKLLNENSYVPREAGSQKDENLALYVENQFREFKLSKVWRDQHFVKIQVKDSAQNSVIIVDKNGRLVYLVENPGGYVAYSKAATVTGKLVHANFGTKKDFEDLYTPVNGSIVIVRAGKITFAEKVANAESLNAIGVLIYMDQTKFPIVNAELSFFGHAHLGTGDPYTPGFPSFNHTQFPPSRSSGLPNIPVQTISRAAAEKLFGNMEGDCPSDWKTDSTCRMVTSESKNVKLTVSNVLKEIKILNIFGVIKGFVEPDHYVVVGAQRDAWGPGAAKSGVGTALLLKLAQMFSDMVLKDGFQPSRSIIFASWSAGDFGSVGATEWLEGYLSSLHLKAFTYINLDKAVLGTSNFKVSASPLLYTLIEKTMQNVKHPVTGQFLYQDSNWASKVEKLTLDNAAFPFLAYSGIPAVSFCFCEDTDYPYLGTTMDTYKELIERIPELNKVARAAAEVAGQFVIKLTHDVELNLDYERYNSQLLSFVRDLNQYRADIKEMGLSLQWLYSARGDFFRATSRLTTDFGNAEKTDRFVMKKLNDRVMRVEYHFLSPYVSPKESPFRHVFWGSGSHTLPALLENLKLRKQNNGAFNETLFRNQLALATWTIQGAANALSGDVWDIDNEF

Binder | binding result [1] | binding result [2] | EC50 (read off the curve) [3] [µg/mL] | binding result [4] | binding result [5]
B1 | binds | binds | ~0.03 |  | 
B2 |  |  |  | binds | binds
B3 |  |  |  | binds | binds
B4 | binds | binds | ~0.04 |  | 
B5 |  |  |  | binds | binds
B6 |  |  |  | binds | binds
B7 |  |  |  | binds | binds
B8 |  |  |  | binds | binds
B9 |  |  |  | binds | binds
B10 |  |  |  | binds | binds
B11 | binds | binds | ~0.03 |  | 
B12 |  |  |  | binds | binds
B13 | binds | binds | ~0.04 |  | 
B14 |  |  |  | binds | binds
B15 |  | binds | ~0.03 |  | 
